Measured values from patent US20050256058A1.
Numbered stars: 1 amine (or outer) side, 2 acyl side, 3 side chain; on linkers, the order of the positions; unused ones are H or OH. Square brackets hold non-standard residues; d marks the D form. * marks the point of attachment. CH═CH‑CON(CH3)CH2CH2Ph = CN(CCc1ccccc1)C(=O)/C=C/*; AAsp = aza-Asp, O=C(N(CC(=O)[*:3])N[*:1])[*:2]; CH═CH‑CON(CH3)CH2Ph = CN(Cc1ccccc1)C(=O)/C=C/*; CH:CH‑COOEt = CCOC(=O)/C=C/*; Cbz = O=C(OCc1ccccc1)*

How the values were obtained:
Test in all cases: cell-based or functional assay
[1] = target: T1, Caspase-2 (UniProt P42575)
T1 sequence (looked up): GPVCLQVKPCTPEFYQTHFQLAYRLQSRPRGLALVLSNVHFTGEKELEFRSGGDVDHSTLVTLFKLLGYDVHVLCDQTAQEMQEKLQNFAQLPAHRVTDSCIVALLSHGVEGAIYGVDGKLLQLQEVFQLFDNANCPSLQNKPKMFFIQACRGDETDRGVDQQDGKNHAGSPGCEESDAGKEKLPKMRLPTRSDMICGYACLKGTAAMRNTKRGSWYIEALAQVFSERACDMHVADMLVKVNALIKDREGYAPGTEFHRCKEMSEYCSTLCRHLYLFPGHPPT

[2] = target: T2, Caspase-7 (UniProt P55210)
T2 sequence (looked up): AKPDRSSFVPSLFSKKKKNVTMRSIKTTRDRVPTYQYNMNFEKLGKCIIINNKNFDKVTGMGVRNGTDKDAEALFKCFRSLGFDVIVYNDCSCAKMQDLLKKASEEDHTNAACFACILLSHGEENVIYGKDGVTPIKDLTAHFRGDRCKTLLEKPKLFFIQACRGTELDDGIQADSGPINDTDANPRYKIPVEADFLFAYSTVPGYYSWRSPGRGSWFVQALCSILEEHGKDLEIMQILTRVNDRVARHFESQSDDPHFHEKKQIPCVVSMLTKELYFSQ

[3] = target: Caspase-9 (UniProt P55211)
[4] = target: T3, Caspase-10 (UniProt Q92851)
T3 sequence (looked up): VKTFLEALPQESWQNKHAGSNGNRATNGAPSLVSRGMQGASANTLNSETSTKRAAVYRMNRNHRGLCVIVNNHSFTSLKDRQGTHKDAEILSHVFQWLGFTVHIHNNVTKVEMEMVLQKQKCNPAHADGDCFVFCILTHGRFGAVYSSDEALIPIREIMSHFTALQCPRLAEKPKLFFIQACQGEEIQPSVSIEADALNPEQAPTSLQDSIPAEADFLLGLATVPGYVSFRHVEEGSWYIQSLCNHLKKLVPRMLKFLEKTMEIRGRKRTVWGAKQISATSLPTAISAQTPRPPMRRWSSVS

[5] = target: T4, Caspase-3 (UniProt P42574)
T4 sequence (looked up): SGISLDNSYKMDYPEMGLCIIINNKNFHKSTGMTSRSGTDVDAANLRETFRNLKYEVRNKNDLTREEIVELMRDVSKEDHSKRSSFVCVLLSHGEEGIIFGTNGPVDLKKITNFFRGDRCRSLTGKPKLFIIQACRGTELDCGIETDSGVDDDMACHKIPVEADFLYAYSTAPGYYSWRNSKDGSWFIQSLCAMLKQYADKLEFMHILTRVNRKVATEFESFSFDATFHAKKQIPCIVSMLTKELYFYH

[6] = target: Caspase-8 (UniProt Q14790)
[7] = target: T5, Caspase-6 (UniProt P55212)
T5 sequence (looked up): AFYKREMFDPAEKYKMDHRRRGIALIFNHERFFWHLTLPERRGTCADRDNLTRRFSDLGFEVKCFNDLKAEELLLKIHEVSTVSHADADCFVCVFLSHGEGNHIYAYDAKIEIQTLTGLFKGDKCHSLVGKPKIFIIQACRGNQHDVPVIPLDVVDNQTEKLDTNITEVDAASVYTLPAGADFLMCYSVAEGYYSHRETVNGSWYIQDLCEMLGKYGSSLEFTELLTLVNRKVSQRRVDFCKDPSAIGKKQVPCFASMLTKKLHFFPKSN

[8] = target: T6, Caspase-10, Q92851
T6 chain: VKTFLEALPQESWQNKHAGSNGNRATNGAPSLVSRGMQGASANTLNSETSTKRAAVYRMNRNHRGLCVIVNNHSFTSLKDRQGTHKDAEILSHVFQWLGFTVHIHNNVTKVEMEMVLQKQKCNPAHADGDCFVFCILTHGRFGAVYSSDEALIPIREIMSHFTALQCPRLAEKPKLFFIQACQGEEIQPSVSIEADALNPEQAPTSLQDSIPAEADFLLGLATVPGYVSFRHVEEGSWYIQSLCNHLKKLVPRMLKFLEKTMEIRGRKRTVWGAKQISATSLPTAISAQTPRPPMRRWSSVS

[9] = target: T7, Caspase-8, Q14790
T7 chain: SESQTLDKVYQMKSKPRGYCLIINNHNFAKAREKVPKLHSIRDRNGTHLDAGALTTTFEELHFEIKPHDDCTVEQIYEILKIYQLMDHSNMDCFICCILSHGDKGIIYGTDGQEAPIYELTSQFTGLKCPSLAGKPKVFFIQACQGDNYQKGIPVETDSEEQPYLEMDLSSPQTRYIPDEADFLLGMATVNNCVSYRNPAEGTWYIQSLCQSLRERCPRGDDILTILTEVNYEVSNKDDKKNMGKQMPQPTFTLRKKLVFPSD

[10] = target: T8, Caspase-7, P55210
T8 chain: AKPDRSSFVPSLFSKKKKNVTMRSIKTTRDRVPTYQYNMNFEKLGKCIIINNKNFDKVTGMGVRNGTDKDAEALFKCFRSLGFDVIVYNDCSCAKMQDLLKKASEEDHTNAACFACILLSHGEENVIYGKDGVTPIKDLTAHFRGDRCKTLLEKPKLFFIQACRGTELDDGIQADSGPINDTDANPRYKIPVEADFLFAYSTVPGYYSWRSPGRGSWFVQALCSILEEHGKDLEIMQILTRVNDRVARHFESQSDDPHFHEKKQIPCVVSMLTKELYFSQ

[11] = target: T9, Caspase-3, P42574
T9 chain: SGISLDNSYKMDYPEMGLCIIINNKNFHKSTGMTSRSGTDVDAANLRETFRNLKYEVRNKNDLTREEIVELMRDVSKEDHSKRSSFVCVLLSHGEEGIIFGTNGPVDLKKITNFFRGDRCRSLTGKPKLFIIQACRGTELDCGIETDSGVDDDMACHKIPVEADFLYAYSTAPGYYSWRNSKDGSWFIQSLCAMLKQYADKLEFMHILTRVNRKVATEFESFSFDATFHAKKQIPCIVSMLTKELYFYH

[12] = target: T10, Caspase-9, P55211
T10 chain: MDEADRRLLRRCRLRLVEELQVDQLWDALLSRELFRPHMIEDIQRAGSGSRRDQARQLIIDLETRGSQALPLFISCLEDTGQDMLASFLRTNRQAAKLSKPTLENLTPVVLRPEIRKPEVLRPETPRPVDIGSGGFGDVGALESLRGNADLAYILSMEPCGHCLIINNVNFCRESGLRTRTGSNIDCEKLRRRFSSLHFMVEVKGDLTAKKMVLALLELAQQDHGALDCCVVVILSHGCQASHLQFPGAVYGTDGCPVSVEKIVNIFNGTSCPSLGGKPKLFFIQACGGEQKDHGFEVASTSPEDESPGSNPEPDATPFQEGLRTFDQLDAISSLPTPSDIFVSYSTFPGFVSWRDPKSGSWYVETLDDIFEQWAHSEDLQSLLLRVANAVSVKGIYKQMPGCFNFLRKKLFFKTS

[13] = target: T11, Caspase-6, P55212
T11 chain: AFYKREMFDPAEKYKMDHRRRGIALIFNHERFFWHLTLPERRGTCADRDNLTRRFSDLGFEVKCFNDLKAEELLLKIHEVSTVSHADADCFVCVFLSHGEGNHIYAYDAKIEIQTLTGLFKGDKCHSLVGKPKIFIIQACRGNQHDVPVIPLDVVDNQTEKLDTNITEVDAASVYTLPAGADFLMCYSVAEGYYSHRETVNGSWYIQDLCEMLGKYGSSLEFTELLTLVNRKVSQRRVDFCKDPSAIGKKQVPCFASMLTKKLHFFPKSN

[14] = target: T12, calpain I from porcine erythrocytes (porcine), P35750
T12 chain: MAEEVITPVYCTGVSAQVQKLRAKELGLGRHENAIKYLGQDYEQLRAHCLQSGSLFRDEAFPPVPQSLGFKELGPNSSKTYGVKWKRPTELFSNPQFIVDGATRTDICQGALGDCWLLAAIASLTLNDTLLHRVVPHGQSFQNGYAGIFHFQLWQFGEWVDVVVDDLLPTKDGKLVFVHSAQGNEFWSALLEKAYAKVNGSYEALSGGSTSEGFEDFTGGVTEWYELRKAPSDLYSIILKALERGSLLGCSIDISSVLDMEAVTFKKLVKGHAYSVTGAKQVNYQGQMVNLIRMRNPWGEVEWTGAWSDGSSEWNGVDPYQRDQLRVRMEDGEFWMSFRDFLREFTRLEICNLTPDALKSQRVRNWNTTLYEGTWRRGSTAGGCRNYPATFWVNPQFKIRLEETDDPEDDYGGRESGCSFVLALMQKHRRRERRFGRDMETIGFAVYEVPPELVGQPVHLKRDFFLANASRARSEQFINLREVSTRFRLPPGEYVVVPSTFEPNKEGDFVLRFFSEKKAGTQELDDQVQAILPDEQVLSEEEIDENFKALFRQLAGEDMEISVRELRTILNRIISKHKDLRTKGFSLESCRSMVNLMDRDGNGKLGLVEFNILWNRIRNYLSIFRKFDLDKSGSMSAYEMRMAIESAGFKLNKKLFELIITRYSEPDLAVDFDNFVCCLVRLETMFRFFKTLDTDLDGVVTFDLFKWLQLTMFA

[15] = target: Cathepsin B

Binder	k2 [1]	k2 [2]	k2 [3]	k2 [4]	k2 [5]	k2 [6]	k2 [7]	k2 [8]	k2 [9]	k2 [10]	k2 [11]	k2 [12]	k2 [13]	k2 [14]	k2 [15]
Cbz-IET[AAsp]-{CH═CH‑CON(CH3)CH2CH2Ph} (SMILES CC[C@H](C)[C@H](NC(=O)OCc1ccccc1)C(=O)N[C@@H](CCC(=O)O)C(=O)N[C@H](C(=O)NN(CC(=O)O)C(=O)/C=C/C(=O)N(C)CCc1ccccc1)[C@@H](C)O) [Cbz-Ile-Glu-Thr-AAsp-CH═CH-CON(CH3)CH2CH2Ph]	38 M⁻¹ s⁻¹	1020 M⁻¹ s⁻¹	760 M⁻¹ s⁻¹	8770 M⁻¹ s⁻¹	5480 M⁻¹ s⁻¹	60500 M⁻¹ s⁻¹	–	–	–	–	–	–	–	–	–
Cbz-IET[AAsp]-{CH═CH‑CONHCH2CH2Ph} [Cbz-Ile-Glu-Thr-AAsp-CH═CH-CONHCH2CH2Ph]	30 M⁻¹ s⁻¹	440 M⁻¹ s⁻¹	615 M⁻¹ s⁻¹	8290 M⁻¹ s⁻¹	4750 M⁻¹ s⁻¹	71000 M⁻¹ s⁻¹	18700 M⁻¹ s⁻¹	–	–	–	–	–	–	–	–
DEVD (modifications not checked) [Cbz-Asp-Glu-Val-AAsp-CH═CH-CONHCH2Ph]	–	–	–	–	–	–	–	19400 M⁻¹ s⁻¹	78200 M⁻¹ s⁻¹	249000 M⁻¹ s⁻¹	1.75e+06 M⁻¹ s⁻¹	2010 M⁻¹ s⁻¹	3210 M⁻¹ s⁻¹	–	–
Cbz-IET[AAsp]-{CH═CH‑CON(CH3)CH2Ph} (SMILES CC[C@H](C)[C@H](NC(=O)OCc1ccccc1)C(=O)N[C@@H](CCC(=O)O)C(=O)N[C@H](C(=O)NN(CC(=O)O)C(=O)/C=C/C(=O)N(C)Cc1ccccc1)[C@@H](C)O) [Cbz-Ile-Glu-Thr-AAsp-CH═CH-CON(CH3)CH2Ph]	95 M⁻¹ s⁻¹	390 M⁻¹ s⁻¹	845 M⁻¹ s⁻¹	8500 M⁻¹ s⁻¹	6000 M⁻¹ s⁻¹	59700 M⁻¹ s⁻¹	45900 M⁻¹ s⁻¹	–	–	–	–	–	–	–	–

The next lines start with the values.

k2 [1]	k2 [2]	k2 [3]	k2 [4]	k2 [5]	k2 [6]	k2 [7]	k2 [8]	k2 [9]	k2 [10]	k2 [11]	k2 [12]	k2 [13]	k2 [14]	k2 [15]	Binder
365 M⁻¹ s⁻¹	920 M⁻¹ s⁻¹	940 M⁻¹ s⁻¹	9210 M⁻¹ s⁻¹	7030 M⁻¹ s⁻¹	245000 M⁻¹ s⁻¹	99200 M⁻¹ s⁻¹	–	–	–	–	–	–	–	–	Cbz-IET[AAsp]-{CH═CH‑CONHPh} [Cbz-Ile-Glu-Thr-AAsp-CH═CH-CONHPh]
115 M⁻¹ s⁻¹	3650 M⁻¹ s⁻¹	340 M⁻¹ s⁻¹	6600 M⁻¹ s⁻¹	41200 M⁻¹ s⁻¹	176000 M⁻¹ s⁻¹	83600 M⁻¹ s⁻¹	–	–	–	–	–	–	–	–	Cbz-VEV[AAsp]-{CH:CH‑COOEt} (SMILES CCOC(=O)/C=C/C(=O)N(CC(=O)O)NC(=O)[C@@H](NC(=O)[C@H](CCC(=O)O)NC(=O)[C@@H](NC(=O)OCc1ccccc1)C(C)C)C(C)C) [Cbz-Val-Glu-Val-AAsp-CH═CH-COOEt]
–	–	–	–	–	–	–	–	237000 M⁻¹ s⁻¹	–	5560 M⁻¹ s⁻¹	37 M⁻¹ s⁻¹	18700 M⁻¹ s⁻¹	< 10 M⁻¹ s⁻¹	< 10 M⁻¹ s⁻¹	LETD (modifications not checked) [Cbz-Leu-Glu-Thr-AAsp-CH═CH-COOEt]
